This note sets out measurements from the supplement of paper PMC12764529.

Data set [1] in a line: folding stability dG unfold from trypsin proteolysis; higher = more stable. A digest of the protocol:
(§1)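 Bayesian fitting of sequencing counts gave K50 for each design. Unfolding free energy followed by setting this against a sequence-predicted unfolded-state K50 and a shared folded-state K50, either per protease or with trypsin and chymotrypsin combined. The designs, under 80 residues and lacking cysteine, were digested in a PA-tagged cDNA display format at 11 threefold-diluted protease concentrations and without protease, and only those with AlphaFold2 dimer inter-PAE above 15 were kept.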

Data set [2] can be described thus: folding stability dG unfold from chymotrypsin proteolysis; higher = more stable. In a few lines: as §1
Data set [3] can be described thus: folding stability dG unfold (combined trypsin and chymotrypsin); higher = more stable. A digest of the protocol: as §1

± gives the half width of the 95% confidence interval.

Take “SAGGSAMIELEIKLPKEEAEKIAEELAKKLAEELGLEVKVVDVEIEYDPETDEVTIRVKIEVEPEPSAGGSA [r15_70_TrROS_Hall]”: the entries for the “folding stability dG unfold” value in data set [1], in data set [2] and in data set [3] were 2.68 ± 0.15 kcal/mol, 1.98 ± 0.1 kcal/mol and 2.48 ± 0.24 kcal/mol, respectively.

As to “SAGGSAMIITFDKKTGKLTIYNKETGKKIEAEITKIEKIPEDKKYVKIKIKNKKTKKEFEFIFKIKSAGGSA [r15_209_TrROS_Hall]”, the “folding stability dG unfold” value turned out to be 2.57 ± 0.16 kcal/mol in data set [1], 4.39 ± 0.1 kcal/mol in data set [2] and 3.81 ± 0.38 kcal/mol in data set [3].

Take “SAGGSAMIVTEDPNGVLTTTENGKVTTTTVTPVPRPDPFSDKTFTEYVVTTTTTPVAPSPITPNTLSAGGSA [r15_515_JUSTAS]”: the “folding stability dG unfold” value was 1.26 ± 0.032 kcal/mol in data set [1], -0.0422 ± 0.081 kcal/mol in data set [2] and 0.823 ± 0.046 kcal/mol in data set [3].

Take “SAGGSAMKEIEINGYKVRIVKIDEKTGKITIYLYPNASEEMKEKVAELLKELGFEIEVEEVSPEELSAGGSA [r15_570_TrROS_Hall]”: the “folding stability dG unfold” value is 3.4 ± 0.28 kcal/mol in data set [1], 3.53 ± 0.14 kcal/mol in data set [2] and 3.44 ± 0.16 kcal/mol in data set [3].

In the case of “SAGGSAMKIKPGETVTIKVKNKETGEWFEAKIVKVDEEKGEIEIEVEVNGKKYTFTIPAEDIEIVESAGGSA [r15_381_TrROS_Hall]”, the “folding stability dG unfold” value in data set [1] was found to be 1.87 ± 0.33 kcal/mol; in data set [2], 3.12 ± 0.077 kcal/mol; in data set [3], 2.89 ± 0.29 kcal/mol.

In the case of “SAGGSAMKIKRDNGKVRIEIDFPPEMKNPERMLMNIRSAINENPNKPIKVTMPPGHREWAKRLLKESAGGSA [r15_89_TrROS]”, the “folding stability dG unfold” value is 0.219 ± 0.19 kcal/mol in data set [1], -0.686 ± 0.44 kcal/mol in data set [2] and -0.248 ± 0.24 kcal/mol in data set [3].

As for “SAGGSAMKITITVEKKEDGTYRVTIEIDGKKIEIEMSVEDLKKKLEELAKELFPDKPIKVEVKPVPSAGGSA [r15_925_TrROS_Hall]”, the “folding stability dG unfold” value in data set [1] amounted to 2.87 ± 0.13 kcal/mol; in data set [2], 4.13 ± 0.36 kcal/mol; in data set [3], 3.83 ± 0.2 kcal/mol.

Take “SAGGSAMKITLKPDGTLEIELPDGVKITITRNANGEVTITITYPDGETKTFPAGMTLEQVLAELLASAGGSA [r15_371_TrROS_Hall]”: the results for the “folding stability dG unfold” value in data set [1], in data set [2] and in data set [3] were 3.56 ± 0.072 kcal/mol, 3.3 ± 0.053 kcal/mol and 3.42 ± 0.051 kcal/mol, respectively.

Take “SAGGSAMKKIPKENVEKVIEFTDKNGKKITIVYNKKTGKAYIFDKKTKKVIEIDMTEDEIKKLLKSSAGGSA [r15_810_TrROS_Hall]”: the “folding stability dG unfold” value in data set [1] amounted to 1.1 ± 0.023 kcal/mol; in data set [2], 2.13 ± 0.061 kcal/mol; in data set [3], 1.89 ± 0.054 kcal/mol.

In the case of “SAGGSAMKKLTIELPDPDITPEEAEKRAREIAEKIAEGNYKVEEIKVEPVDPEKNVYRGTVIIKELSAGGSA [r15_96_JUSTAS]”, the results for the “folding stability dG unfold” value in data set [1], in data set [2] and in data set [3] were 0.64 ± 0.13 kcal/mol, 0.365 ± 0.27 kcal/mol and 0.507 ± 0.34 kcal/mol, respectively.

As for “SAGGSAMKLPKNVKITITKNKDGTVTITITYPDGKKITITMKIDKNGKLKFTKEQIKKLIKELAKKSAGGSA [r15_780_TrROS_Hall]”, the “folding stability dG unfold” value in data set [1] came out at 2.74 ± 0.089 kcal/mol; in data set [2] it was 2.52 ± 0.082 kcal/mol; in data set [3], 2.53 ± 0.22 kcal/mol.

On to “SAGGSAMKLTLKDKKGNTLFLEVEEKTSEDGTPYYEVKIYYPNTNKVEYAEVPVENLEEFAKKLADSAGGSA [r15_92_TrMRF]”, for which the results for the “folding stability dG unfold” value in data set [1], in data set [2] and in data set [3] were 3.21 ± 0.09 kcal/mol, 3.31 ± 0.086 kcal/mol and 3.25 ± 0.18 kcal/mol, respectively.

With “SAGGSAMKVDPSTKVVTVTDPKTGKEYRVNLPDVPPEKGVEVKVDNGKVTVKTEEGVRVIPYSELKSAGGSA [r15_864_JUSTAS]”, the “folding stability dG unfold” value in data set [1] came out at 0.609 ± 0.044 kcal/mol; in data set [2], 0.538 ± 0.12 kcal/mol; in data set [3], 0.71 ± 0.097 kcal/mol.

For “SAGGSAMKVRLEVEEEDGKLRVRLEVEVGPPVVRVEVEAEVEEVDGELVLKVTVKVELSPEALEALSAGGSA [r15_725_TrROS_Hall]”, the “folding stability dG unfold” value in data set [1] was found to be 3.47 ± 0.22 kcal/mol; in data set [2], 3.78 ± 0.11 kcal/mol; in data set [3] it was 3.78 ± 0.15 kcal/mol.

In the case of “SAGGSAMKVYKIKLEFENEETGKRVEIEAEVVEVDGELYLVMKAKVVDEETGEEKEIEIVIKLPKESAGGSA [r15_960_TrROS_Hall]”, the “folding stability dG unfold” value worked out at 2.48 ± 0.21 kcal/mol in data set [1], 2.27 ± 0.4 kcal/mol in data set [2] and 2.31 ± 0.21 kcal/mol in data set [3].

With “SAGGSAMLKVTERTVEVEVFDEEGNPIGWRERKIVVEDPLSPEPRPPPPPVDPVLAAETLGADVLESAGGSA [r15_572_JUSTAS]”, the “folding stability dG unfold” value in data set [1] was -0.0577 ± 0.14 kcal/mol; in data set [2], 0.543 ± 0.21 kcal/mol; in data set [3] it was 0.393 ± 0.14 kcal/mol.

Turning to “SAGGSAMLTLLYRVPPGDPLAHAREIAEALEERFGAKVRILDVKVERDPVTREVYIPVVVELELPESAGGSA [r15_70_TrMRF]”, the “folding stability dG unfold” value in data set [1] came to 0.856 ± 0.074 kcal/mol; in data set [2], 1.3 ± 0.16 kcal/mol; in data set [3] it was 1.14 ± 0.17 kcal/mol.

“SAGGSAMLVFKITIKNPETNETIELEIEAETLEEAKEAIEKLIAELTGKEPTEIKIEVVEIKEEDLSAGGSA [r15_670_TrROS_Hall]”: the “folding stability dG unfold” value in data set [1] was 4.09 ± 0.35 kcal/mol; in data set [2] it was 4.47 ± 0.3 kcal/mol; in data set [3], 4.42 ± 0.27 kcal/mol.

Turning to “SAGGSAMLVIEIEVDGKKVTLVIEVPPEMTEEEIRELAEELAERLRALPGVKEVKVKIERVPPPPESAGGSA [r15_246_TrROS_Hall]”, the “folding stability dG unfold” value in data set [1] was determined as 4.06 ± 0.22 kcal/mol; in data set [2] it was 3.56 ± 0.18 kcal/mol; in data set [3], 3.85 ± 0.26 kcal/mol.

For “SAGGSAMLVKVTITLKKGGKEYTLEQFVEVNPPDLKIEIPPEIKEKGWEIVDIEVEEITPEEAERKSAGGSA [r15_853_JUSTAS]”, the “folding stability dG unfold” value in data set [1] stood at 1.24 ± 0.091 kcal/mol; in data set [2] it was 3.19 ± 0.039 kcal/mol; in data set [3], 2.8 ± 0.28 kcal/mol.

Turning to “SAGGSAMLVVADDPEVVRELVEPLFPDGEPVLVVGATEEEAAKLVEELKKKGLPFKVVVVRRPDRPSAGGSA [r15_567_TrMRF]”, the “folding stability dG unfold” value in data set [1] was 0.932 ± 0.048 kcal/mol; in data set [2], -0.039 ± 0.23 kcal/mol; in data set [3] it was 0.657 ± 0.14 kcal/mol.

In the case of “SAGGSAMMLAKVKIELPNGEIVEIPIEFESLEELEEKIKEKARELFPDIPIEDIKILDIELYSLEESAGGSA [r15_220_TrMRF]”, the “folding stability dG unfold” value in data set [1] was determined as 4.06 ± 0.27 kcal/mol; in data set [2], 5.32 ± 0.13 kcal/mol; in data set [3], 5.31 ± 0.34 kcal/mol.

With “SAGGSAMMTLEEAIEKAAKNIPVGEKKIIEIKLEKGTFTVEIEKIGPKEVKIKILKISKGPEEEEISAGGSA [r15_150_TrMRF]”, the “folding stability dG unfold” value was determined as 3.99 ± 0.23 kcal/mol in data set [1], 4.68 ± 0.18 kcal/mol in data set [2] and 4.61 ± 0.3 kcal/mol in data set [3].

Regarding “SAGGSAMPEDTPFVVTKTTEYRLPDGSRVTFEPVPETGKTLVTFTPPDGSSERVWLTPEEAEKLLASAGGSA [r15_2_JUSTAS]”, the “folding stability dG unfold” value in data set [1] is 1.11 ± 0.02 kcal/mol; in data set [2] it was 1.3 ± 0.1 kcal/mol; in data set [3] it was 1.22 ± 0.11 kcal/mol.

For the sequence “SAGGSAMPLLIVDKNNNVTLISASSPEELEELLKKYNIKKIEPFPFPDGKALVFIAEYPDGIIYSGSAGGSA [r15_632_TrMRF]”, the “folding stability dG unfold” value was 1.3 ± 0.02 kcal/mol in data set [1], 1.65 ± 0.047 kcal/mol in data set [2] and 1.52 ± 0.049 kcal/mol in data set [3].

Turning to “SAGGSAMPVVELPIGPELYEKIKEAAEAGDPDKVITLPLKLPNGEEVTLVVEADPATPEFRARVELSAGGSA [r15_700_TrMRF]”, the “folding stability dG unfold” value in data set [1] is -0.683 ± 0.1 kcal/mol; in data set [2], 0.397 ± 0.085 kcal/mol; in data set [3], 0.105 ± 0.096 kcal/mol.

As to “SAGGSAMQQLDITKTKWDPNTGTLSVTAKDPLTGEVTTYTIPRNGPTLNFPPGAELKSVETEPPPLSAGGSA [r15_959_JUSTAS]”, the “folding stability dG unfold” value in data set [1] is 0.0912 ± 0.28 kcal/mol; in data set [2], -0.368 ± 0.37 kcal/mol; in data set [3], -0.0792 ± 0.27 kcal/mol.

With “SAGGSAMSITISDISSVKNLTITETTPDGTPVTVTVNATTGSGPPTLTFTATTPGTGATTTTTTAFSAGGSA [r15_1006_JUSTAS]”, the “folding stability dG unfold” value in data set [1] is 0.693 ± 0.014 kcal/mol; in data set [2], -0.299 ± 0.099 kcal/mol; in data set [3], 0.38 ± 0.051 kcal/mol.

For “SAGGSAMSLEELKGHLVRLTLPDGRVVVAPVKEMDEEAPVLVIEFGGKPILIPKDAPVKLEVLPPGSAGGSA [r15_355_TrMRF]”, the “folding stability dG unfold” value is 0.962 ± 0.039 kcal/mol in data set [1], 0.581 ± 0.052 kcal/mol in data set [2] and 0.759 ± 0.062 kcal/mol in data set [3].

Consider “SAGGSAMSPEEVEEKIKEIAKKLGVEIEVKVEISPEGGIKITVKVNDKFDINEIKKGIEEALGIKLSAGGSA [r15_807_JUSTAS]”, for which the “folding stability dG unfold” value in data set [1] worked out at 4.4 ± 0.55 kcal/mol; in data set [2], 2.65 ± 0.16 kcal/mol; in data set [3], 3.94 ± 0.45 kcal/mol.

Turning to “SAGGSAMSVTLTFEEPVGPGVPVKVTVTVERFPDSVKVTVTTTFPDGTVTTTPVSLKLEPAAVDLLSAGGSA [r15_263_JUSTAS]”, the “folding stability dG unfold” value in data set [1] was 2.44 ± 0.11 kcal/mol; in data set [2] it was 2.694 ± 0.022 kcal/mol; in data set [3], 2.54 ± 0.082 kcal/mol.

In the case of “SAGGSAMTAEEVEEKVREAFAALGVEAEVEVRESPEGGLEVLVVTGEDADLEEVKAALEELFGTDISAGGSA [r15_807_TrMRF]”, the figures for the “folding stability dG unfold” value in data set [1], in data set [2] and in data set [3] were 2.51 ± 0.12 kcal/mol, 2.5 ± 0.064 kcal/mol and 2.48 ± 0.078 kcal/mol, respectively.

In the case of “SAGGSAMTIEIVVPTLEAIEKLAEETGAEVVEVRFFEEEGLVVVRIKVPESKEELLEKIREALGLESAGGSA [r15_118_TrROS_Hall]”, the “folding stability dG unfold” value was determined as 2.17 ± 0.069 kcal/mol in data set [1], 2.1 ± 0.092 kcal/mol in data set [2] and 2.11 ± 0.1 kcal/mol in data set [3].

Take “SAGGSAMTIEKREDGYLVITVDVPPGTSPEELAERLKKLFPNEEVTVTVVKDGKLVKEFVIKAEDLSAGGSA [r15_1047_TrROS_Hall]”: the “folding stability dG unfold” value turned out to be 2.25 ± 0.056 kcal/mol in data set [1], 2.06 ± 0.034 kcal/mol in data set [2] and 2.2 ± 0.071 kcal/mol in data set [3].

Consider “SAGGSAMTLEEARELVERLVRELFPDAEVLDVDAVRLPDRLVLVDAVVRPKYRPDEVLRFRFLLGDSAGGSA [r15_627_TrMRF]”, for which the “folding stability dG unfold” value stood at 3.53 ± 0.1 kcal/mol in data set [1], 4.106 ± 0.032 kcal/mol in data set [2] and 3.94 ± 0.06 kcal/mol in data set [3].
